Data reported in paper PMC9352680, “A comprehensive thermodynamic model for RNA binding by the Saccharomyces cerevisiae Pumilio protein PUF4”.

T1: PUF4 RNA-binding domain (Saccharomyces cerevisiae, UniProt P25339 537-888)
T1 sequence: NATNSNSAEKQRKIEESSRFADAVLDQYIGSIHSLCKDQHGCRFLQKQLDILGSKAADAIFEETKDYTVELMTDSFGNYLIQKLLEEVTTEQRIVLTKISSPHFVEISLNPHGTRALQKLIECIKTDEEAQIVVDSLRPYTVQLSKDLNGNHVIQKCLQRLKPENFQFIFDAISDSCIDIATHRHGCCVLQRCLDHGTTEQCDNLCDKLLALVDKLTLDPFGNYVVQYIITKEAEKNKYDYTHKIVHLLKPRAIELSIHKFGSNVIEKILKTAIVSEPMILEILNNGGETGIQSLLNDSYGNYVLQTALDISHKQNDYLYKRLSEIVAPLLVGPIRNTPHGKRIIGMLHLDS


The binders below were run against T1, PUF4 RNA-binding domain (assay: Mg; RNA-MaP; 20 mM Na-HEPES pH 7.4, 30 mM KOAc, 0.75 mM MgCl2, 0.1% Tween-20, 5% glycerol, 0.1 mg/mL BSA, 2 mM DTT; 25 C; 0.0125-409.6 nM protein). Conditions: tags: N-His6-TEV cleaved; C-SNAP kept, Cy3B-labelled; label: tethered on chip by stalled RNA polymerase.

Binder | Kd [µM]
Id_ii_S4_P4E.2_K4.1_C4.2_[C-2G]_[T-1C]_H4.1_A4.1_F4.1_T4.2_[G10C]_[T11C] (ssRNA) RNA: UUUGACAACUGAUCGUUCUUUCUGCUGUAUAUUACCUUCUUUCUCGAUCAGUUGUCUUU | 0.00135
Id_ii_S4_P4E.2_K4.1_C4.2_[C-2G]_H4.1_A4.1_F4.1_T4.2_[G10C]_[T11C] (ssRNA) RNA: UUUGACAACUGAUCGUUCUUUCUGUUGUAUAUUACCUUCUUUCUCGAUCAGUUGUCUUU | 0.00176
Id_ii_S4_P4E.2_K4.1_C4.2_[C-2G]_[T-1C]_H4.1_A4.1_F4.1_T4.2_[G10T] (ssRNA) RNA: UUUGACAACUGAUCGUUCUUUCUGCUGUAUAUUAUUUUCUUUCUCGAUCAGUUGUCUUU | 0.000295
Id_ii_S4_P4E.2_K4.1_C4.2_[C-2G]_H4.1_A4.1_F4.1_T4.2_[G10T]_[T11A] (ssRNA) RNA: UUUGACAACUGAUCGUUCUUUCUGUUGUAUAUUAUAUUCUUUCUCGAUCAGUUGUCUUU | 0.000515
UCUCUUUAUAGUAUUAUCUCUU (ssRNA) [Ib_S1_P5E.1_K5.1_C5.1_H5.1_[G2A]_A5.1_[T5G]_F5.1_T5.1] | 1.36
Id_ii_S4_P3E.4_K3.3_C3.2_[C-2T]_[T-1C]_H3.3_A3.1_F3.1_T3.2_[T9C]_[A10G] (ssRNA) RNA: UUUGACAACUGAUCGUUCUUUCUUCACACUAUACGUUCUUUCUCGAUCAGUUGUCUUU | > 2.3
Id_ii_S4_P3E.4_K3.3_C3.2_[T-1G]_H3.3_A3.1_F3.1_T3.2_[T9C] (ssRNA) RNA: UUUGACAACUGAUCGUUCUUUCUCGACACUAUACAUUCUUUCUCGAUCAGUUGUCUUU | 0.637
Id_ii_S4_P3E.4_K3.3_C3.2_[T-1G]_H3.3_A3.1_F3.1_T3.2_[T9C]_[A10T] (ssRNA) RNA: UUUGACAACUGAUCGUUCUUUCUCGACACUAUACUUUCUUUCUCGAUCAGUUGUCUUU | > 2.3
Id_ii_S4_P3E.4_K3.3_C3.2_[C-2T]_[T-1A]_H3.3_A3.1_F3.1_T3.2_[T9A]_[A10T] (ssRNA) RNA: UUUGACAACUGAUCGUUCUUUCUUAACACUAUAAUUUCUUUCUCGAUCAGUUGUCUUU | > 2.3
Id_ii_S4_P3E.4_K3.3_C3.2_[C-2T]_[T-1A]_H3.3_A3.1_F3.1_T3.2_[A10C] (ssRNA) RNA: UUUGACAACUGAUCGUUCUUUCUUAACACUAUAUCUUCUUUCUCGAUCAGUUGUCUUU | 1.54
Id_ii_S4_P3E.4_K3.3_C3.2_[C-2A]_[T-1A]_H3.3_A3.1_F3.1_T3.2_[A10C] (ssRNA) RNA: UUUGACAACUGAUCGUUCUUUCUAAACACUAUAUCUUCUUUCUCGAUCAGUUGUCUUU | 1.02
Id_ii_S4_P3E.4_K3.3_C3.2_[C-2T]_H3.3_A3.1_F3.1_T3.2_[T9A] (ssRNA) RNA: UUUGACAACUGAUCGUUCUUUCUUUACACUAUAAAUUCUUUCUCGAUCAGUUGUCUUU | 2.3
Id_ii_S4_P3E.4_K3.3_C3.2_[T-1A]_H3.3_A3.1_F3.1_T3.2_[T9C]_[A10C] (ssRNA) RNA: UUUGACAACUGAUCGUUCUUUCUCAACACUAUACCUUCUUUCUCGAUCAGUUGUCUUU | 2.16
Id_ii_S4_P3E.4_K3.3_C3.2_[C-2T]_[T-1C]_H3.3_A3.1_F3.1_T3.2_[A10T] (ssRNA) RNA: UUUGACAACUGAUCGUUCUUUCUUCACACUAUAUUUUCUUUCUCGAUCAGUUGUCUUU | 1.43
Id_ii_S4_P3E.4_K3.3_C3.2_[C-2T]_[T-1A]_H3.3_A3.1_F3.1_T3.2_[A10T] (ssRNA) RNA: UUUGACAACUGAUCGUUCUUUCUUAACACUAUAUUUUCUUUCUCGAUCAGUUGUCUUU | 1.31
Id_ii_S4_P3E.4_K3.3_C3.2_H3.3_A3.1_F3.1_T3.2_[T9C] (ssRNA) RNA: UUUGACAACUGAUCGUUCUUUCUCUACACUAUACAUUCUUUCUCGAUCAGUUGUCUUU | 0.597
Id_ii_S4_P3E.4_K3.3_C3.2_[T-1A]_H3.3_A3.1_F3.1_T3.2 (ssRNA) RNA: UUUGACAACUGAUCGUUCUUUCUCAACACUAUAUAUUCUUUCUCGAUCAGUUGUCUUU | 0.291
Id_ii_S4_P3E.4_K3.3_C3.2_[C-2A]_H3.3_A3.1_F3.1_T3.2_[A10T] (ssRNA) RNA: UUUGACAACUGAUCGUUCUUUCUAUACACUAUAUUUUCUUUCUCGAUCAGUUGUCUUU | 0.0493
Id_ii_S4_P3E.4_K3.3_C3.2_[C-2T]_H3.3_A3.1_F3.1_T3.2 (ssRNA) RNA: UUUGACAACUGAUCGUUCUUUCUUUACACUAUAUAUUCUUUCUCGAUCAGUUGUCUUU | 0.345

Binder | Kd [µM]
Id_ii_S4_P3E.4_K3.3_C3.2_[C-2T]_[T-1A]_H3.3_A3.1_F3.1_T3.2 (ssRNA) RNA: UUUGACAACUGAUCGUUCUUUCUUAACACUAUAUAUUCUUUCUCGAUCAGUUGUCUUU | 0.264
Id_ii_S4_P3E.4_K3.3_C3.2_[C-2T]_H3.3_A3.1_F3.1_T3.2_[T9A]_[A10C] (ssRNA) RNA: UUUGACAACUGAUCGUUCUUUCUUUACACUAUAACUUCUUUCUCGAUCAGUUGUCUUU | 0.935
Id_ii_S4_P3E.4_K3.3_C3.2_[C-2T]_H3.3_A3.1_F3.1_T3.2_[A10T] (ssRNA) RNA: UUUGACAACUGAUCGUUCUUUCUUUACACUAUAUUUUCUUUCUCGAUCAGUUGUCUUU | 0.946
Id_ii_S4_P3E.4_K3.3_C3.2_[C-2T]_H3.3_A3.1_F3.1_T3.2_[T9G]_[A10C] (ssRNA) RNA: UUUGACAACUGAUCGUUCUUUCUUUACACUAUAGCUUCUUUCUCGAUCAGUUGUCUUU | 1.23
Id_ii_S4_P3E.4_K3.3_C3.2_[T-1C]_H3.3_A3.1_F3.1_T3.2_[T9G]_[A10C] (ssRNA) RNA: UUUGACAACUGAUCGUUCUUUCUCCACACUAUAGCUUCUUUCUCGAUCAGUUGUCUUU | > 2.3
Id_ii_S4_P3E.4_K3.3_C3.2_[C-2T]_[T-1C]_H3.3_A3.1_F3.1_T3.2_[A10C] (ssRNA) RNA: UUUGACAACUGAUCGUUCUUUCUUCACACUAUAUCUUCUUUCUCGAUCAGUUGUCUUU | > 2.3
Id_ii_S4_P3E.4_K3.3_C3.2_[T-1C]_H3.3_A3.1_F3.1_T3.2_[A10T] (ssRNA) RNA: UUUGACAACUGAUCGUUCUUUCUCCACACUAUAUUUUCUUUCUCGAUCAGUUGUCUUU | 1.05
Id_ii_S4_P3E.4_K3.3_C3.2_H3.3_A3.1_F3.1_T3.2_[T9C]_[A10T] (ssRNA) RNA: UUUGACAACUGAUCGUUCUUUCUCUACACUAUACUUUCUUUCUCGAUCAGUUGUCUUU | 1.38
Id_ii_S4_P3E.4_K3.3_C3.2_[C-2A]_[T-1C]_H3.3_A3.1_F3.1_T3.2_[T9G]_[A10C] (ssRNA) RNA: UUUGACAACUGAUCGUUCUUUCUACACACUAUAGCUUCUUUCUCGAUCAGUUGUCUUU | > 2.3
Id_ii_S4_P3E.4_K3.3_C3.2_[C-2A]_[T-1C]_H3.3_A3.1_F3.1_T3.2_[A10T] (ssRNA) RNA: UUUGACAACUGAUCGUUCUUUCUACACACUAUAUUUUCUUUCUCGAUCAGUUGUCUUU | 1.14
Id_ii_S4_P3E.4_K3.3_C3.2_[C-2A]_[T-1C]_H3.3_A3.1_F3.1_T3.2_[T9A]_[A10C] (ssRNA) RNA: UUUGACAACUGAUCGUUCUUUCUACACACUAUAACUUCUUUCUCGAUCAGUUGUCUUU | 1.37
Id_ii_S4_P3E.4_K3.3_C3.2_[C-2A]_[T-1A]_H3.3_A3.1_F3.1_T3.2_[T9C] (ssRNA) RNA: UUUGACAACUGAUCGUUCUUUCUAAACACUAUACAUUCUUUCUCGAUCAGUUGUCUUU | 0.496
Id_ii_S4_P3E.4_K3.3_C3.2_[T-1G]_H3.3_A3.1_F3.1_T3.2_[T9A] (ssRNA) RNA: UUUGACAACUGAUCGUUCUUUCUCGACACUAUAAAUUCUUUCUCGAUCAGUUGUCUUU | > 2.3
Id_ii_S4_P3E.4_K3.3_C3.2_[C-2A]_H3.3_A3.1_F3.1_T3.2_[T9A]_[A10C] (ssRNA) RNA: UUUGACAACUGAUCGUUCUUUCUAUACACUAUAACUUCUUUCUCGAUCAGUUGUCUUU | 0.0264
Id_ii_S4_P3E.4_K3.3_C3.2_[C-2A]_H3.3_A3.1_F3.1_T3.2_[A10C] (ssRNA) RNA: UUUGACAACUGAUCGUUCUUUCUAUACACUAUAUCUUCUUUCUCGAUCAGUUGUCUUU | 0.0418
Id_ii_S4_P3E.4_K3.3_C3.2_H3.3_A3.1_F3.1_T3.2_[A10C] (ssRNA) RNA: UUUGACAACUGAUCGUUCUUUCUCUACACUAUAUCUUCUUUCUCGAUCAGUUGUCUUU | 0.926
UCUCUUUAUACUAUUAUCUCUU (ssRNA) [Ib_S1_P5E.1_K5.1_C5.1_H5.1_[G2A]_A5.1_[T5C]_F5.1_T5.1] | 0.33
UCUCUUUUUAGUAUUAUCUCUU (ssRNA) [Ib_S1_P5E.1_K5.1_C5.1_H5.1_[G2T]_A5.1_[T5G]_F5.1_T5.1] | > 2.3
